Assays:
Assay in all cases: ITC
Conditions in all cases: both partners purified
[1] = target: T1, Rae1(31-368)-Nup98(157-213) heterodimer (human, UniProt P78406 31-368; P52948 157-213)
T1 construct: also called Rae1-Nup98; Rae1-Nup98 complex
T1 sequence (P78406 31-368, chain 1 of 2): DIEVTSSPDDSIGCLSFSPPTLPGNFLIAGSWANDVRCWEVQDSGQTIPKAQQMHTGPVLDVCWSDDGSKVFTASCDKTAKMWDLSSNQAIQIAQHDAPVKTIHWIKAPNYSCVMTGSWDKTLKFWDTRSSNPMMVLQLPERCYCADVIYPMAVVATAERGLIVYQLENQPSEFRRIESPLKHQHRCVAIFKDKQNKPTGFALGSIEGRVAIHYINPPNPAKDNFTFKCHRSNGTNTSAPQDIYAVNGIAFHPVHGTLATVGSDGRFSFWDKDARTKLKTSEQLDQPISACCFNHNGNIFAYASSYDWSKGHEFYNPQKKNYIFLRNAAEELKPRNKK
T1 sequence (P52948 157-213, chain 2 of 2): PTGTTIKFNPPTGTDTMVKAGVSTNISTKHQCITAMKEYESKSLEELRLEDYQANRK

[2] = target: T2, Rae1(31-368)-Nup98(157-213) heterodimer (human, UniProt P78406 31-368; P52948 157-213); remark: listed apart in the source
T2 construct: also called Rae1-Nup98; Rae1-Nup98 complex
T2 sequence (P78406 31-368, chain 1 of 2): as the sequence (P78406 31-368, chain 1 of 2) above
T2 sequence (P52948 157-213, chain 2 of 2): as the sequence (P52948 157-213, chain 2 of 2) above

[3] = target: T2, Rae1(31-368)-Nup98(157-213) heterodimer; remark: listed apart in the source

B1: SARS-CoV-2 ORF6 C3 peptide I60A (peptide)
peptide: YSQLDEEQPMEAD
notes: source: synthetic peptide
- fold reduction of binding affinity against SARS-CoV-2 ORF6 C3 [1]: ~17.5 fold

B2: SARS-CoV-2 ORF6 C3 peptide M58L (peptide)
peptide: YSQLDEEQPLEID
notes: source: synthetic peptide
- Kd [1]: 10.4 µM

B3: SARS-CoV-2 ORF6 C3 peptide Q56E (peptide)
peptide: YSQLDEEEPMEID
notes: source: synthetic peptide
- fold increase of binding affinity against SARS-CoV-2 ORF6 C3 [1]: ~6 fold

B4: SARS-CoV-2 ORF6-D53A (peptide)
peptide: YSQLAEEQPMEID
notes: source: synthetic peptide
- Ka [2]: 863000 M⁻¹
- Kd [2]: 1.15 µM
- stoichiometry N [2]: 0.71

B5: SARS-CoV-2 ORF6-E59A (peptide)
peptide: YSQLDEEQPMAID
notes: source: synthetic peptide
- Ka [3]: 606000 M⁻¹
- Kd [3]: 1.65 µM
- stoichiometry N [3]: 0.68

B6: SARS-CoV-2 ORF6-I60A (peptide)
peptide: YSQLDEEQPMEAD
notes: source: synthetic peptide
- Ka [3]: 238000 M⁻¹
- Kd [3]: 4.2 µM
- stoichiometry N [3]: 0.68

B7: SARS-CoV-2 ORF6-E54A (peptide)
peptide: YSQLDAEQPMEID
notes: source: synthetic peptide
- Ka [2]: 1.72e+06 M⁻¹
- Kd [2]: 0.58 µM
- stoichiometry N [2]: 0.59

B8: SARS-CoV-2 ORF6-P57A (peptide)
peptide: YSQLDEEQAMEID
notes: source: synthetic peptide
- Ka [3]: 1.12e+06 M⁻¹
- Kd [3]: 0.89 µM
- stoichiometry N [3]: 2.34

B9: SARS-CoV-2 ORF6-M58L (peptide)
peptide: YSQLDEEQPLEID
notes: source: synthetic peptide
- Ka [3]: 96400 M⁻¹
- stoichiometry N [3]: 1

B10: SARS-CoV-2 ORF6-D61A (peptide)
peptide: YSQLDEEQPMEIA
notes: source: synthetic peptide
- Ka [3]: 361000 M⁻¹
- Kd [3]: 2.77 µM
- stoichiometry N [3]: 0.76

B11: SARS-CoV-2 ORF6-E55A (peptide)
peptide: YSQLDEAQPMEID
notes: source: synthetic peptide
- Ka [2]: 1.75e+06 M⁻¹
- Kd [2]: 0.57 µM
- stoichiometry N [2]: 0.65

B12: SARS-CoV-2 ORF6-Q56E (peptide)
peptide: YSQLDEEEPMEID
notes: source: synthetic peptide
- Ka [2]: 2.08e+07 M⁻¹
- Kd [2]: 0.04 µM
- stoichiometry N [2]: 0.781
